US20110135636A1 (SYMPHOGEN A S, published 2011)

B1: Fab 1030 (Fab, V domains shown, not shown: small tags and cut ends)
VH: EVQLVESGGGLVKPGGSLKLSCAASGFTFSSYALSWVRQTPERRLEWVASISGVGSTYFPDSVKGRFTMSRDNARNILYLQMSSLRSEDTAMYYCARGSDGYFYAMDYWGQGTSVTVS
VL: DIVLTQSPASLAVSLGQRATISCRASKSVSTSGYSFMHWYQLKPGQPPKLLIYLASNLESGVPARFSGSGSGTDFTLNIHPVEEEDAATYYCQHSREFPLTFGGGTKLEIKR
B2: Fab 1024 (Fab, V domains shown, not shown: small tags and cut ends)
VH: QVQLQQPGAELVEPGGSVKLSCKASGYTFTSHWMHWVKQRPGQGLEWIGEINPSSGRNNYNEKFKSKATLTVDKSSSTAYMQFSSLTSEDSAVYYCVRYYGYDEAMDYWGQGTSVTVS
VL: DIVMTQAAFSNPVTLGTSASISCRSSKSLLHSNGITYLYWYLQKPGQSPQLLIYQMSNLASGVPDRFSSSGSGTDFTLRISRVEAEDVGVYYCAQNLELPYTFGGGTKLEIKR
B3: Fab 992 (Fab, V domains shown, not shown: small tags and cut ends)
VH: EVQLQQPGSELVRPGASVKLSCKASGYTFTSYWMHWVKQRPGQGLEWIGNIYPGSRSTNYDEKFKSKATLTVDTSSSTAYMQLSSLTSEDSAVYYCTRNGDYYVSSGDAMDYWGQGTSVTVS
VL: DIQMTQTTSSLSASLGDRVTISCRTSQDIGNYLNWYQQKPDGTVKLLIYYTSRLHSGVPSRFSGSGSGTDFSLTINNVEQEDVATYFCQHYNTVPPTFGGGTKLEIKR
B4: antibody 1229 (antibody, human IgG1, kappa, V domains shown)
VH: QVQLKESGPGLVAPSQSLSITCSVSGFSLTIYGVHWVRQPPGKGLEWLGVMWAGGNTDYNSALMSRLNISKDNSKSQVFLKVNSLQTDDTAMYYCTRDPDGYYVGWFFDVWGAGTTVTVSS
VL: DIVMTQSHKFMSTSVGDRVSITCKASQDVTNAVAWYQQKPGQSPKLLIYWASIRHTGVPDRFTGSRSGTDYTLTINSVQAEDLALYYCQQHYNTPLTFGAGTKLEIKR
notes: Chimeric IgG1 kappa

Columns and labels:
[1] = target: T1, full length human EGFR expressed on the cell surface (human, UniProt P00533 25-1210); experiment: cell ELISA, Fab on A431-NS cells
T1 construct: whole, on cells; also called EGFR on A431-NS cells; EGFR on HN5 cells
Description: (§1) Cell ELISA: The relative binding affinities defined as the molar concentration giving the half maximal OD (ED50) were determined by antibody titrations on A431-NS cells. Briefly, 10,000 A431-NS cells were grown in 96 well ELISA plates containing DMEM with added 0.5% FCS and 1% P/S at 37° C., 5% CO₂ overnight. […] Then 50 μl of a secondary Goat-anti-Human (Fab specific) HRP conjugate diluted 1:5000 in DMEM containing 1% BSA was added and incubated on ice for 30 min. Finally wells were washed four times with PBS and plates developed by adding 50 μl/well TMB Plus substrate and read at 620 nm every 5-15-30 min. After incubation with substrate the reaction was stopped by addition of 1 M H₂SO₄ and absorbance read at 450 nm. The functional affinity expressed as ED50 values were calculated by subtraction of the average background binding with secondary reagent only, followed by normalization of the binding curves by plotting % maximal binding relative to each antibody tested.

[2] = target: T1, full length human EGFR expressed on the …; experiment: cell ELISA, Fab titrated on paraformaldehyde-fixed A431-NS cells
Description: as §1

[3] = target: T1, full length human EGFR expressed on the …; experiment: cell ELISA, Fab titrated on paraformaldehyde-fixed A431-NS cells; given as ED50
Description: as §1

[4] = target: T2, wild type full length EGFR purified from A431 cells (human, UniProt P00533 25-1210); experiment: indirect ELISA, Fab on coated purified full length EGFR
T2 construct: mature; Bought; coated on ELISA wells; also called full length EGFR receptor antigen; Sigma E3641

[5] = target: T3, EGFR-Fc (recombinant EGFR ECD-Fc chimera, R&D Systems 344-ER) (human, UniProt P00533 25-645); experiment: SPR (BIAcore 2000); Fab over immobilized EGFR ECD-Fc
T3 construct: extracellular domain; Bought; also called immobilized Human EGFR ECD; immobilized receptor; not shown: human IgG Fc

[6] = target: T3, EGFR-Fc (recombinant EGFR ECD-Fc …); experiment: SPR (BIAcore 2000); Fab over immobilized EGFR ECD-Fc against IgG with soluble EGFR ECD
[7] = target: T3, EGFR-Fc (recombinant EGFR ECD-Fc …); experiment: SPR (BIAcore 2000); Fab over immobilized EGFR ECD-Fc; Scatchard analysis
[8] = target: T1, full length human EGFR expressed on the …; experiment: cell ELISA, Fab titrated on paraformaldehyde-fixed A431-NS cells, against SPR
Description: as §1

[9] = target: T4, recombinant human EGFR extracellular domain with 6xHis (human, UniProt P00533 25-645); experiment: SPR (Biacore 3000) on captured 6xHis EGFR ECD
T4 construct: In-house produced; also called 6xHis EGFR ECD; soluble human EGFR ECD; not shown: 6xHis tag

[10] = target: T5, Cynomolgus EGFR extracellular domain (Cynomolgus monkey (Macaca fascicularis), UniProt P55245 25-645 (rhesus entry)); experiment: ELISA on cynomolgus EGFR ECD (Example 10)
T5 construct: Cloned without signal peptide; also called Cynomolgus rEGFR ECD; Cynomolgus EGFR ECD
Description: To verify that tested Anti-EGFR antibodies bound equally well to both Human and Cynomolgus EGFR ECD and accordingly warranting toxicology studies in Cynomolgus monkeys, serial four fold dilutions of antibodies beginning from 1 μg/ml were tested by ELISA for binding to recombinant Human and Cynomolgus EGFR ECD proteins. […] ELISA wells were coated with 50 μl/well of full length EGFR at a concentration of 1 μg/ml in PBS overnight at 4° C. The next morning wells were washed twice with PBS-T and blocked for one hour with 100 μl PBS-T-1% BSA at room temperature, followed by wash twice in PBS-T. Next 50 μl of serially diluted Anti-EGFR antibodies and control antibodies were added to wells and incubated for one hour at room temperature. After antibody incubation wells were washed five times with PBS-T, followed by incubation with 50 μl/well Streptavidin-HRP secondary reagent diluted 1:3000 in blocking buffer and incubation at room temperature for 30 min. Finally wells were washed five times with PBS-T and plates were developed by adding 50 μL/well TMB substrate and incubated at room temperature. After incubation the reaction was stopped by addition of 1 M H₂SO₄; 100 μl/well and plates were read at OD 450 nm.

Binder | EC50 (read off the curve) [1] | Log ED50 [2] | EC50 [3] | EC50 (read off the curve) [4] | Kd [5] | koff [5] | kon [5] | t1/2 [5] | fold higher affinity against immobilized antigen than against soluble receptor [6] | Kd [7] | fold lower monovalent functional affinity value on cells than tested with BIAcore [8] | binding result [9] | binding result [10]
B1 | ~1 nM | 0.27 | 1.8 nM | ~4 nM | 2.3 nM | 0.0002 s⁻¹ | 87000 M⁻¹ s⁻¹ | 57.5 min | 10 fold |  |  |  | 
B2 | ~2 nM | 0.3 | 2 nM |  | 25.6 nM | 0.0049 s⁻¹ | 190000 M⁻¹ s⁻¹ | 2.3 min |  |  |  |  | 
B3 |  | 1 | 9.9 nM |  |  |  |  | 0.2 min |  | 150 nM | ≥ 15 fold |  | 
B4 |  |  |  |  |  |  |  |  |  |  |  | no binding (tested: 40 ug/ml) | no binding
